Assay results from patent US20160362487A1 (Regeneron, published 2016).

T1: human IL-33 (R&D Systems, #3625-IL-010/CF) (human, UniProt O95760 112-270)
T1 construct: Commercial recombinant protein; also called hIL-33; interleukin-33
T1 sequence (looked up): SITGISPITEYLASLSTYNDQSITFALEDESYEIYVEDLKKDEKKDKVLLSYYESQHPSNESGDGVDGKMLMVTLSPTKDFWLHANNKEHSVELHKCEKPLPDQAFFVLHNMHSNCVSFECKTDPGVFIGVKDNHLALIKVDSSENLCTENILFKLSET

T2: cynomolgus monkey IL-33 expressed with a C-terminal hexahistidine tag (cynomolgus monkey)
T2 construct: also called MfIL-33-6His; Mf-IL-33-6His
T2 chain: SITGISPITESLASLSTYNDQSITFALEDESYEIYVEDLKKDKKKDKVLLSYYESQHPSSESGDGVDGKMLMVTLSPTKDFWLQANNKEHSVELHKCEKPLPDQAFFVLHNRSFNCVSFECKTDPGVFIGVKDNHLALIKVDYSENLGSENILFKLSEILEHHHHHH


Key:
[1] = target: T1, human IL-33 (R&D Systems, …); test: SPR 25C pH7.4, mAb captured
Description: (§1) Equilibrium dissociation constants (KD values) for IL-33 binding to purified anti-IL-33 monoclonal antibodies were determined using a real-time surface plasmon resonance biosensor using a Biacore 4000 instrument. The Biacore sensor surface was first derivatized by amine coupling with either a polyclonal rabbit anti-mouse antibody (GE, # BR-1008-38) or with a monoclonal mouse anti-human Fc antibody (GE, # BR-1008-39) to capture anti-IL-33 monoclonal antibodies expressed with mouse or with human IgG4 constant regions, respectively. All Biacore binding studies were performed in 0.01M ADA pH 7.4, 0.15M NaCl, 3 mM EDTA, and 0.05% v/v Surfactant Tween-20 (ABS-ET running buffer). […] Association of either hIL-33 or MfIL-33-6His to the captured monoclonal antibody was monitored for 4 minutes and their dissociation in ABS-ET running buffer was monitored for 10 minutes. The effect of reduced pH on the binding of each anti-IL-33 antibody to either hIL-33 or MfIL-33-6His was studied using an in-line pH chase assay format in 0.01M ADA pH 6.0, 0.15M NaCl, 3 mM EDTA, and 0.05% v/v Surfactant Tween-20 (ABS-ET pH6 buffer). To achieve this, association of either hIL-33 or MfIL-33-6His to the captured monoclonal antibody was monitored for 4 minutes in ABS-ET running buffer. Following a 30 second dissociation of either hIL-33 or MfIL-33-6His in ABS-ET running buffer, ABS-ET pH6 buffer was injected for 3 minutes, and the analyte dissociation under the low-pH conditions was measured. All the binding kinetic experiments were performed at both 25° C. and 37° C. Kinetic association (kₐ) and dissociation (kd) constants were determined by fitting the real-time sensorgrams to a 1:1 binding model using Scrubber 2.0c curve fitting software. Binding dissociation equilibrium constants (KD) and dissociative half-lives (t½) were calculated from the kinetic rate constants as: […]

[2] = target: T2, cynomolgus monkey IL-33 expressed with …; test: SPR 25C pH7.4, mAb captured
Description: as §1

[3] = target: T1, human IL-33 (R&D Systems, …); test: SPR 37C pH7.4, mAb captured
Description: as §1

[4] = target: T2, cynomolgus monkey IL-33 expressed with …; test: SPR 37C pH7.4, mAb captured
Description: as §1

[5] = target: T1, human IL-33 (R&D Systems, …); test: BLI; hIL-33 pre-mixed with mAb-2 Isotype control 1
Description: Binding competition between a panel of different anti-IL-33 monoclonal antibodies was determined using a real time, label-free bio-layer interferometry assay on an Octet® HTX biosensor (ForteBio, A Division of Pall Life Sciences). The experiment was performed at 25° C. using a buffer of 0.01M HEPES pH7.4, 0.15M NaCl, 0.05% v/v Surfactant Tween-20, and 0.1 mg/ml BSA (HBS-ET kinetics buffer) with the plate shaking at a speed of 1000 rpm. To assess whether two antibodies were able to compete with one another for binding to human IL-33, a pre-mix assay format was used where 100 nM of human IL-33 (R&D Systems; #3625-IL-010/CF) was pre-mixed with 500 nM of different anti-IL-33 monoclonal antibodies (subsequently referred to as mAb-2) for at least 2 hours prior to running the binding competition assay. […] Following the capture step, unoccupied anti-mouse Fc polyclonal antibody and anti-human Fc polyclonal antibody on the Octet biosensors were saturated by submerging them for 4 minutes into wells containing 200 μg/mL of a non-specific monoclonal antibody with a mouse Fc or with a human Fc, respectively. Finally, the Octet biosensors were immersed for 4 minutes into wells containing the pre-mixed samples of 100 nM of human IL-33 and 500 nM of mAb-2. At the end of each cycle, the non-covalently captured anti-IL-33 antibodies along with the bound pre-complex of human IL-33 and mAb-2 were removed from the biosensors using three alternate 20 second immersions into 10 mM HCl followed by submerging into HBS-ET kinetics buffer. The biosensors were washed in HBS-ET kinetics buffer in between every step of the experiment. The real-time binding response was monitored during the binding events, and the binding response (in units of nm) at the end of every step was recorded.

Binder | Kd [1] [nM] | koff [1] [s⁻¹] | kon [1] [M⁻¹ s⁻¹] | t½ [1] [min] | Kd [2] [nM] | koff [2] [s⁻¹] | kon [2] [M⁻¹ s⁻¹] | t½ [2] [min] | Kd [3] [nM] | koff [3] [s⁻¹] | kon [3] [M⁻¹ s⁻¹] | t½ [3] [min] | Kd [4] [nM] | koff [4] [s⁻¹] | kon [4] [M⁻¹ s⁻¹] | t½ [4] [min] | mAb-1 Binding to the Pre-complex of mAb-2 & hIL-33 [5] [nm]
H4H9666P (antibody, human IgG4, V domains shown, Human IgG4 Fc (H4H)) VH: QVQLVQSGAEVKKPGASVKVSCKASGYTFTSYGISWVRQAPGQGLEWMGWIRAYNGYTNYAQKFQGRVTMTTDTSTNTAYMELRTLNSDDTAVYYCARDRYSGSFHGNFDYWGQGTLVTVSS VL: DIQMTQSPSSVSASVGDRVTITCRASQGIFSWLAWYQQKPGKAPKVLIYAASNLESGVPSRFSGSGSGTDFTLTISSLQPEDFATYYCQQANSLPLTFGGGTKVEIK | 0.551 | 0.00028 | 508000 | 41 | 15.9 | 0.00354 | 222000 | 3.3 | 0.681 | 0.00077 | 1.13e+06 | 15 | 32.7 | 0.0141 | 432000 | 0.8 | 0.15
H4H9665P (antibody, human IgG4, V domains shown, Human IgG4 Fc (H4H)) VH: EVQLVESGGGLVQPGGSLRLSCAASGFTFSNYAMTWVRQAPGKGLEWVSTISGSGDNTYYADSVQGRFTISRGHSKNTLYLQMNSLRAEDTAVYYCAKPTYSRSWYGAFDFWGQGTMVTVSS VL: DIQMTQSPSSVSASVGDRVTITCRASQGISSWLAWYQQKPGKAPQLLIYAASRLQSGVPSRFWGSGSGTDFTLTISSLQPEDFATYYCQQANNFPFTFGPGTKVDIK | 0.533 | 0.000474 | 888000 | 24 | 1.02 | 0.000566 | 557000 | 20 | 1.19 | 0.00144 | 1.21e+06 | 8 | 1.91 | 0.0021 | 1.1e+06 | 5 | 0.14
H4H9664P (antibody, human IgG4, V domains shown, Human IgG4 Fc (H4H)) VH: QVQLVESGGGVVQPGRSLRLSCAASGFTFSSYGLHWVRQSPGKGLEWVALISYDGSNKYYADSVKGRFTISRDNSKNTLYLQMNSLRPEDTAGYFCAKSLYTTSWYGGFDYWGQGTLVTVSS VL: DIQMTQSPSSVSASVGDRVTITCRASQGIRSWLAWYQQKPGKAPNLLIYAASSLQSGVPSRFSGSGSGTDFTLTISSLQPEDFATYYCQQANSFPPTFGPGTKVDIK | 0.757 | 0.000257 | 339000 | 45 | 11.8 | 0.00165 | 140000 | 7 | 1.39 | 0.000721 | 519000 | 16 | 16.2 | 0.00584 | 361000 | 2 | 0.16
H4H9667P (antibody, human IgG4, V domains shown, Human IgG4 Fc (H4H)) VH: EVQLVESGGGLVQPGGSLRLSCAASGFTFSTYSMHWVRQAPGKGLEYVSTINNNGDTTYYADSVKGRFTISRDNSKNTLYLQLGSLRPEDMAVYYCARQTYTSSWYGGFDSWGQGTLVTVSS VL: DIQMTQSPSSVSASVGDRVTITCRASQGITSWLAWYQQKPGKAPKLLIYAASNLQSGVPSRFSGSGSGTDFTLTITSLQPEDFATYYCQQANSLPFTFGPGTKVDIK | 0.395 | 0.000252 | 637000 | 46 | 2.89 | 0.000991 | 343000 | 12 | 0.618 | 0.000603 | 976000 | 19 | 4.66 | 0.00317 | 681000 | 4 | 0.23

Now those with a lower Kd [1], led by results:

Kd [1] [nM] | koff [1] [s⁻¹] | kon [1] [M⁻¹ s⁻¹] | t½ [1] [min] | Kd [2] [nM] | koff [2] [s⁻¹] | kon [2] [M⁻¹ s⁻¹] | t½ [2] [min] | Kd [3] [nM] | koff [3] [s⁻¹] | kon [3] [M⁻¹ s⁻¹] | t½ [3] [min] | Kd [4] [nM] | koff [4] [s⁻¹] | kon [4] [M⁻¹ s⁻¹] | t½ [4] [min] | mAb-1 Binding to the Pre-complex of mAb-2 & hIL-33 [5] [nm] | Binder
0.368 | 0.000289 | 786000 | 40 | 4.77 | 0.0021 | 440000 | 6 | 0.676 | 0.000783 | 1.16e+06 | 15 | 6.84 | 0.00503 | 735000 | 2.3 | 0.19 | H4H9670P (antibody, V domains shown, Human IgG4 Fc (H4H)) VH: EVQLVESGGGLVQPGGSLRLSCAASGFTLSSYAMSWVRQAPGKGLEWVSAISGSGGSTYYADSVKGRFTISRDNSKNSLYLQLNSLRAEDTAVYYCAKTLYTTSWYGGFQHWGQGTLVTVSS VL: DIQMTQSPSSVSASIGDRVTITCRASQGISSWLAWYQQKPGKVPKLLIYAASSLQSGFPSRFSGSGSGTDFTLTISSLQPEDFATYYCQQTHSFPWTVGQGTKVEIK
0.305 | 0.000414 | 1.36e+06 | 28 | 1.06 | 0.000925 | 869000 | 12 | 0.677 | 0.00124 | 1.83e+06 | 9 | 2.22 | 0.00361 | 1.62e+06 | 3.2 | 0.17 | H4H9663P (antibody, human IgG4, V domains shown, Human IgG4 Fc (H4H)) VH: QVQLVQSGAEVKKPGASVKVSCKASGYTFTGHYMYWMRQAPGQGLEWMGWINPNSGGTNYAQKFQDRVTMTRDTSISTAYMELSRLRSDDTAVYYCARGRYGSSWYGGFEYWGQGTLVTVSS VL: DIQMTQSPSSVSASVGDRVTITCRASQGITSWLAWYQQKPGKAPNLLIYAAASLQSGVPSRFSGSGSGTDFTLTISSLQPEDFTTYYCQQAYSLPLTFGGGTKVEIK
0.308 | 0.00025 | 811000 | 46 | 1.25 | 0.000442 | 353000 | 26 | 0.443 | 0.00062 | 1.4e+06 | 19 | 2.24 | 0.00158 | 707000 | 7 | 0.19 | H4H9662P (antibody, V domains shown, Human IgG4 Fc (H4H)) VH: EVQLVESGGGLVQPGGSLRLSCAASGFTFSSYALTWVRQAPGKGLEWVSFISGSGGRPFYADSVKGRFTISRDNSKNMLYLQMNSLRAEDTAIYYCAKSLYTTSWYGGFDSWGQGTLVTVSS VL: DIQMTQSPSSVSASVGDRVTITCRASQGVVSWLAWYQQKPGKAPKLLIYAASSLQSGVPSRFSGSGSGTDFTLTISSLQPEDFATYYCQQSNSFPFTLGPGTKVDIK
